Experimental data as given in patent publication US7585498B2, “Regulation of adenovirus DNA packaging by IPTG” (The Research Foundation of State University of New York, priority 2001, dated 2009).

Legend:
N52.E6 cells = test: Generation of virus stocks with IPTG in the media; format: cell-based, human; conditions: 2 mM IPTG in the media
Source text: Towards the development of an all-inclusive helper virus whose packaging is specifically and selectively repressed while providing early and late gene products for complementation in trans of a gutted virus, the following recombinant Ad was constructed (FIG. 14). Ad-AV-VII(lac)^2-LacWT contains the AV-VII(lac)^2 minimal domain in place of the WT packaging domain as well as a CMV-M45-LacWT expression cassette. Ad-AV-VII^2-LacWT serves as a control, and contains the AV-VII^2 minimal domain without Lac binding sites, as well as the CMV-M45-LacWT expression cassette. These viruses were plaque purified and grown in N52.E6 cells. N52.E6 cells are a human amniocyte cell line transformed with Ad E1A and E1B sequences (Schiedner, Hertel et al. 2000). These cells contain only Ad nts 505-3522 and share no homologous sequence with the viral DNA constructs, thus eliminating the possibility of the generation of replication competent adenovirus (RCA) by recombination with Ad sequences present in other E1-containing cell lines. To generate stocks of these viruses, they were grown in N52.E6 cells with IPTG in the media at a concentration of 2 mM. IPTG is required in the media, as these viruses express Lac repressor protein that is able to bind to lac binding sites within the packaging domain and suppress packaging.

[1] = test system: AV-VII(lac)^2 dimer probe; test: Gel mobility shift assay, AV-VII(lac)^2 dimer probe; conditions: whole cell extract of transfected 293 cells
[2] = test system: lac binding site monomer probe; test: Gel mobility shift assay, lac binding site monomer probe; conditions: whole cell extract of transfected 293 cells

Molecule	growth of Lac repressor expressing viruses (N52.E6 cells)	AV-VII(lac) dimer binding activity [1]	Lac site monomer binding activity [2]
CC(C)S[C@@H]1O[C@H](CO)[C@H](O)[C@H](O)[C@H]1O [IPTG, isopropyl-β-D-thiogalactopyranoside]	allowed for growth of these viruses		
LacWT: M45 epitope-tagged wild type E. coli Lac repressor protein in whole cell extract of transfected 293 cells (protein, left off: small tags and cut ends) MKPVTLYDVAEYAGVSYQTVSRVVNQASHVSAKTREKVEAAMAELNYIPNRVAQQLAGKQSLLIGVATSSLALHAPSQIVAAIKSRADQLGASVVVSMVERSGVEACKAAVHNLLAQRVSGLIINYPLDDQDAIAVEAACTNVPALFLDVSDQTPINSIIFSHEDGTRLGVEHLVALGHQQIALLAGPLSSVSARLRLAGWHKYLTRNQIQPIAEREGDWSAMSGFQQTMQMLNEGIVPTAMLVANDQMALGAMRAITESGLRVGADISVVGYDDTEDSSCYIPPLTTIKQDFRLLGQTSVDRLLQLSQGQAVKGNQLLPVSLVKRKTTLAPNTQTASPRALADSLMQLARQVSRLESGQ		detected	detected
